In the data set the test system is Escherichia coli TOP10. The data set can be described thus: shrunken log2 fold change of peptide-encoding DNA abundance (4.5 h post-induction vs induction); higher = less antimicrobial activity (less host growth inhibition). Conditions: time post-induction: 4.5 h; library: site-saturation at positions 5, 18, 19, 20.
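Note: peptides expressed intracellularly from a pBAD plasmid library in pooled LB shake-flask culture, induced with 0.3% L-arabinose, DNA abundance read by NGS, three biological replicates, DESeq2 with apeglm shrinkage.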

On to RRIRRRPPRLPRPRPRPNDYPRP, for which the “shrunken log2 fold change” value was -0.407. On to RRIRKRPPRLPRPRPRPGAAPRP, for which the “shrunken log2 fold change” value is 1.54. On to RRIRFRPPRLPRPRPRPEQNPRP, for which the “shrunken log2 fold change” value stood at 0.264. To RRIRDRPPRLPRPRPRPWSMPRP belongs -0.0018; to RRIRLRPPRLPRPRPRPALSPRP, 3.4; to RRIRARPPRLPRPRPRPGKIPRP, 0.0623. As to RRIRWRPPRLPRPRPRPWFGPRP, the “shrunken log2 fold change” value was -0.0254.

As for RRIRTRPPRLPRPRPRPRCGPRP, the “shrunken log2 fold change” value was 0.172. Under RRIRQRPPRLPRPRPRPYVSPRP stands -0.0823. To RRIRVRPPRLPRPRPRPFKLPRP belongs -0.277; to RRIRFRPPRLPRPRPRPFTAPRP, -0.662; to RRIRHRPPRLPRPRPRPFWIPRP, -0.364. Under RRIRVRPPRLPRPRPRPYNVPRP stands -0.0185; under RRIRYRPPRLPRPRPRPHVHPRP, -0.00398. In the case of RRIRPRPPRLPRPRPRPDRCPRP, the “shrunken log2 fold change” value came to 0.584. To RRIRMRPPRLPRPRPRPSGPPRP belongs 0.205; to RRIRERPPRLPRPRPRPPTEPRP, 0.0778; to RRIRWRPPRLPRPRPRPMNSPRP, -0.0812.

Take RRIRLRPPRLPRPRPRPNHCPRP: the “shrunken log2 fold change” value is -0.132. To RRIRCRPPRLPRPRPRPKHGPRP belongs -0.116; to RRIRIRPPRLPRPRPRPYEIPRP, -0.811; to RRIRWRPPRLPRPRPRPTVWPRP, 0.533. Turning to RRIRCRPPRLPRPRPRPMILPRP, the “shrunken log2 fold change” value was -0.352. To RRIRHRPPRLPRPRPRPAWIPRP belongs -0.0987; to RRIRRRPPRLPRPRPRPEMMPRP, 0.345. On to RRIRTRPPRLPRPRPRPSIAPRP, for which the “shrunken log2 fold change” value was -0.281. To RRIRDRPPRLPRPRPRPGKLPRP belongs 0.0495. With RRIRERPPRLPRPRPRPDTSPRP, the “shrunken log2 fold change” value is -0.417. In the case of RRIRERPPRLPRPRPRPSVVPRP, the “shrunken log2 fold change” value is -0.213. Under RRIRWRPPRLPRPRPRPHSNPRP stands -0.09; under RRIRGRPPRLPRPRPRPYVSPRP, -0.203.

Take RRIRNRPPRLPRPRPRPRMEPRP: the “shrunken log2 fold change” value is -0.0307. Under RRIRLRPPRLPRPRPRPPNSPRP stands 0.0409; under RRIRPRPPRLPRPRPRPVGCPRP, 1.56. Under RRIRIRPPRLPRPRPRPLFMPRP stands -0.756.

On to RRIRARPPRLPRPRPRPWGDPRP, for which the “shrunken log2 fold change” value is 0.376. Under RRIRQRPPRLPRPRPRPSSPPRP stands 0.167; under RRIRYRPPRLPRPRPRPMYGPRP, -0.00999; under RRIRARPPRLPRPRPRPSRTPRP, 0.471. To RRIRMRPPRLPRPRPRPCSFPRP belongs 0.0622. RRIRTRPPRLPRPRPRPDIAPRP: the “shrunken log2 fold change” value was -0.0105. Under RRIRNRPPRLPRPRPRPCLVPRP stands 0.0322; under RRIRARPPRLPRPRPRPDQFPRP, 0.389; under RRIRIRPPRLPRPRPRPLVPPRP, -0.33. Under RRIRTRPPRLPRPRPRPFYHPRP stands -0.486; under RRIRDRPPRLPRPRPRPDRCPRP, -0.149; under RRIRIRPPRLPRPRPRPSIDPRP, -0.342. Under RRIRLRPPRLPRPRPRPYWIPRP stands -0.00778; under RRIRMRPPRLPRPRPRPWDIPRP, 0.232; under RRIRFRPPRLPRPRPRPTCSPRP, -0.0827. RRIRHRPPRLPRPRPRPLRHPRP: the “shrunken log2 fold change” value is -0.132.

As to RRIRGRPPRLPRPRPRPHKGPRP, the “shrunken log2 fold change” value was -0.136. Under RRIRYRPPRLPRPRPRPKVLPRP stands -0.04.

RRIRGRPPRLPRPRPRPPCHPRP: the “shrunken log2 fold change” value was 0.429. On to RRIRARPPRLPRPRPRPGENPRP, for which the “shrunken log2 fold change” value amounted to 0.687. For RRIRERPPRLPRPRPRPEELPRP, the “shrunken log2 fold change” value was found to be 0.174. To RRIRWRPPRLPRPRPRPGNSPRP belongs -0.22; to RRIRPRPPRLPRPRPRPCDAPRP, 0.375. Under RRIRFRPPRLPRPRPRPCYSPRP stands 0.019.

Turning to RRIRARPPRLPRPRPRPWAQPRP, the “shrunken log2 fold change” value came to 0.0167.

In the case of RRIRCRPPRLPRPRPRPEMWPRP, the “shrunken log2 fold change” value turned out to be 0.166. Under RRIRHRPPRLPRPRPRPWFSPRP stands -0.294; under RRIRRRPPRLPRPRPRPDWCPRP, 0.201.

For the sequence RRIRLRPPRLPRPRPRPMHCPRP, the “shrunken log2 fold change” value is -0.00782. Consider RRIRTRPPRLPRPRPRPMCHPRP, for which the “shrunken log2 fold change” value was -0.228.

For the sequence RRIRLRPPRLPRPRPRPVHQPRP, the “shrunken log2 fold change” value was found to be 0.244.

RRIRMRPPRLPRPRPRPEDEPRP: the “shrunken log2 fold change” value amounted to 2.06. Under RRIRDRPPRLPRPRPRPYNRPRP stands -0.361; under RRIRIRPPRLPRPRPRPKGIPRP, -0.13; under RRIRNRPPRLPRPRPRPRWTPRP, 0.0415. To RRIRLRPPRLPRPRPRPITDPRP belongs -0.465; to RRIRNRPPRLPRPRPRPNMDPRP, -0.0443. For the sequence RRIRVRPPRLPRPRPRPGEYPRP, the “shrunken log2 fold change” value stood at 0.00369. For the sequence RRIRHRPPRLPRPRPRPVSDPRP, the “shrunken log2 fold change” value was 0.132.

As to RRIRKRPPRLPRPRPRPWGAPRP, the “shrunken log2 fold change” value came out at 0.449. To RRIRDRPPRLPRPRPRPHNNPRP belongs -0.604. As for RRIRNRPPRLPRPRPRPYWQPRP, the “shrunken log2 fold change” value was -0.215. To RRIRSRPPRLPRPRPRPPRTPRP belongs 0.619.

For the sequence RRIRNRPPRLPRPRPRPFHSPRP, the “shrunken log2 fold change” value is -0.0225.

As to RRIRPRPPRLPRPRPRPGCEPRP, the “shrunken log2 fold change” value was determined as 0.113. Under RRIRTRPPRLPRPRPRPVTPPRP stands 0.184. To RRIRDRPPRLPRPRPRPYWHPRP belongs -0.921; to RRIRTRPPRLPRPRPRPPWTPRP, 0.167. Under RRIRCRPPRLPRPRPRPSSIPRP stands -0.565; under RRIRVRPPRLPRPRPRPCEAPRP, 0.0719; under RRIRLRPPRLPRPRPRPCVFPRP, -0.13. For RRIRCRPPRLPRPRPRPKQQPRP, the “shrunken log2 fold change” value worked out at 0.143. To RRIRFRPPRLPRPRPRPVGVPRP belongs 0.356. Regarding RRIRMRPPRLPRPRPRPGNFPRP, the “shrunken log2 fold change” value stood at 0.121. On to RRIRSRPPRLPRPRPRPNQTPRP, for which the “shrunken log2 fold change” value came to 0.0606. For the sequence RRIRSRPPRLPRPRPRPEREPRP, the “shrunken log2 fold change” value was -0.0693. Under RRIRLRPPRLPRPRPRPATKPRP stands 0.0731; under RRIRHRPPRLPRPRPRPSSYPRP, -0.649; under RRIRPRPPRLPRPRPRPWACPRP, -0.00713. To RRIRCRPPRLPRPRPRPVQCPRP belongs 0.207; to RRIRTRPPRLPRPRPRPPYTPRP, -0.397; to RRIRSRPPRLPRPRPRPACLPRP, 0.0251.

RRIRRRPPRLPRPRPRPFQIPRP: the “shrunken log2 fold change” value was -0.325. To RRIRCRPPRLPRPRPRPCAYPRP belongs -0.153; to RRIRDRPPRLPRPRPRPTFQPRP, 0.0497; to RRIRTRPPRLPRPRPRPTYSPRP, -1.56.

As to RRIRQRPPRLPRPRPRPKYGPRP, the “shrunken log2 fold change” value was -0.3. Under RRIRKRPPRLPRPRPRPWNCPRP stands 0.0387. RRIRMRPPRLPRPRPRPPREPRP: the “shrunken log2 fold change” value turned out to be 1.19. Under RRIRNRPPRLPRPRPRPEIDPRP stands 0.166; under RRIRSRPPRLPRPRPRPYDLPRP, -0.261; under RRIRNRPPRLPRPRPRPIAIPRP, -0.0153. For the sequence RRIRQRPPRLPRPRPRPYVYPRP, the “shrunken log2 fold change” value is 0.00646.

In the case of RRIRFRPPRLPRPRPRPPVEPRP, the “shrunken log2 fold change” value came to 0.143. Under RRIRQRPPRLPRPRPRPYDIPRP stands 0.0432; under RRIRDRPPRLPRPRPRPTTAPRP, 1.3. Take RRIRQRPPRLPRPRPRPNAFPRP: the “shrunken log2 fold change” value came out at 0.227. Under RRIRWRPPRLPRPRPRPKCCPRP stands 0.0888; under RRIRLRPPRLPRPRPRPTQVPRP, 0.452. To RRIRKRPPRLPRPRPRPERAPRP belongs 0.892.

With RRIRKRPPRLPRPRPRPKYSPRP, the “shrunken log2 fold change” value was -0.13.

For RRIRPRPPRLPRPRPRPGAFPRP, the “shrunken log2 fold change” value worked out at 0.293.

On to RRIRARPPRLPRPRPRPKDQPRP, for which the “shrunken log2 fold change” value is 0.504. RRIRARPPRLPRPRPRPWHLPRP: the “shrunken log2 fold change” value was -0.0312. Under RRIRSRPPRLPRPRPRPQFTPRP stands -0.714; under RRIRFRPPRLPRPRPRPGMNPRP, -0.147; under RRIRMRPPRLPRPRPRPINFPRP, -0.0648. Regarding RRIRHRPPRLPRPRPRPLCCPRP, the “shrunken log2 fold change” value was -0.0675. Under RRIRNRPPRLPRPRPRPPKDPRP stands 0.131; under RRIRVRPPRLPRPRPRPAQHPRP, 0.151.

These data come from the supplement of paper PMC9112550, “Optimization of the antimicrobial peptide Bac7 by deep mutational scanning” (BMC Biology, 2022).
